Reference: patent US20100203046A1 (Biogen, published 2010)
Like-named read-outs stand apart in the source and are kept apart here. Each block holds one binder with its values, some of them ahead of it.

Assays:
[1] = biological target: T1, human FcγRI (CD64) on IFNγ-activated U937 cells (human, UniProt P12314 16-374); assay: CD64 bridging assay, purified
T1 construct: whole, on cells; also called FcγR1

[2] = biological target: T2, human FcγRIII (CD16), CD16a (F158), on CD16-transfected Jurkat cells (human, UniProt P08637 17-254); assay: CD16 bridging assay, transient
T2 construct: whole, on cells
T2 sequence (P08637 17-254): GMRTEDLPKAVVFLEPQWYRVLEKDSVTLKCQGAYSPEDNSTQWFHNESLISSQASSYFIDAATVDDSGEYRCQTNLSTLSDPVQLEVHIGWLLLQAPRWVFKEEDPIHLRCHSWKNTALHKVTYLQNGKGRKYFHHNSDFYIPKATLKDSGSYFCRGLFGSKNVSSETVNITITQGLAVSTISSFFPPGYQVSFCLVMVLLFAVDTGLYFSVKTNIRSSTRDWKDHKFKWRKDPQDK

[3] = biological target: Human FcγRIIIa on natural killer (NK) cells of a donor (human, UniProt P08637 17-254); assay: cell-based or functional assay
[4] = biological target: T2, human FcγRIII (CD16), CD16a (F158), on …; assay: CD16 bridging assay, purified
[5] = biological target: T3, human C1q (Sigma C0660) (human, UniProt P02745 23-245; P02746 28-253; P02747 29-245); assay: C1q ELISA on CD2, purified
T3 construct: Bought protein; also called complement protein C1q
T3 sequence (P02745 23-245 limits assumed, chain 1 of 3): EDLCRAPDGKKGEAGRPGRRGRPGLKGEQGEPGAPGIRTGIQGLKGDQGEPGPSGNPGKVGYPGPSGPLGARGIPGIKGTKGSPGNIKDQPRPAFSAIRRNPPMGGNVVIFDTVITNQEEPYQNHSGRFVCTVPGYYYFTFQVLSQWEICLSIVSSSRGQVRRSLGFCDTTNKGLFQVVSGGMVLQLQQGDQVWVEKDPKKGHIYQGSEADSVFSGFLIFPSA
T3 sequence (P02746 28-253 limits assumed, chain 2 of 3): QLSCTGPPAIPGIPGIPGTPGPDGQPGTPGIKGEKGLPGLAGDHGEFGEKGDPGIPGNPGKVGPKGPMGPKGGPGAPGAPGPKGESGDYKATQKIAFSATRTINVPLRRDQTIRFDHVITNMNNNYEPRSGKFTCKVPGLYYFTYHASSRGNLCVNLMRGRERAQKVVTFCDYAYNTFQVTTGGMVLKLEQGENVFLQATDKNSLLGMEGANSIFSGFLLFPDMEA
T3 sequence (P02747 29-245 limits assumed, chain 3 of 3): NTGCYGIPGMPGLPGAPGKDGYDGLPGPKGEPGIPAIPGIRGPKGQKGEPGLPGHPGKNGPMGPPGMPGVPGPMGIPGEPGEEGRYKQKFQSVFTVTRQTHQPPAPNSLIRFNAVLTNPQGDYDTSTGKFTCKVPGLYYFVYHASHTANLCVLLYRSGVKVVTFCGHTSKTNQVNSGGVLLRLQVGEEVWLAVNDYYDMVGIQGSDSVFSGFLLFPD

[6] = biological target: T4, GST-tagged FcγRIII, CD16a (V158) (UniProt P08637 17-208, limits assumed); assay: AlphaScreen competition vs huIgG1 beads, purified
T4 construct: the canonical entry carries F there; Captured by biotinylated anti-GST mAb on streptavidin donor beads; also called GST-FcγRIII; not shown: GST tag
Method: The relative binding affinities to FcγRIII (CD16), of the variant antibodies, was determined using an AlphaScreen assay (Amplified Luminescent Proximity Homogeneous Assay, PerkinElmer, MA, USA). Laser excitation of a donor bead excites oxygen, which if in close proximity to an acceptor bead generates a cascade of chemiluminescent events, ultimately leading to fluorescence emission at 520-620 nm. […] The reaction was carried out for one hour in a 25 μl volume and plates were read in the Fusion Alpha reader (PerkinElmer).

[7] = biological target: T2, human FcγRIII (CD16), CD16a (F158), on …; assay: summary of Table 3 assays
[8] = biological target: T3, human C1q (Sigma C0660); assay: C1q ELISA on CD2, transient
Method: The C1q binding assay was performed by coating 96 well Maxisorb ELISA plates (Nalge-Nunc Rochester, N.Y., USA) with 50 μl recombinant soluble human CD2 at 10 μg/ml overnight at 4° C. in PBS. The wells were aspirated and washed three times with wash buffer (PBS, 0.05% Tween 20) and blocked for >1 h with 200 μ/well of block/diluent buffer (0.1 M Na₂HPO₄, pH 7, 0.1 M NaCl, 0.05% Tween 20, 0.1% gelatin). The antibody to be tested was diluted in block/diluent buffer starting at 15 μg/ml with 3-fold dilutions. 50 μl were added per well, and the plates incubated for 2 h at room temperature. After aspirating and washing as above, 50 μl/well of 2 μg/ml of Sigma human C1q (C0660) diluted in block/diluent buffer was added and incubated for 1.5 h at room temperature. After aspirating and washing as above, 50 μl/well of chicken anti human C1q (Cedarlane laboratories CL2101AP), diluted 2,000-fold in block/diluent buffer, was added. After incubation for 1.5 h at room temperature, the wells were aspirated and washed as above. 50 μl/well of donkey F(ab′)₂ anti chicken IgY HRP conjugate (Jackson ImmunoResearch 703-036-155) diluted to 1:5,000 in block/diluent was then added, and the wells incubated for 1 h at room temperature. After aspirating and washing as above, 100 μl TMB substrate (420 μM TMB, 0.004% H₂O₂ in 0.1 M sodium acetate/citric acid buffer, pH 4.9) was added and incubated for 2 min before the reaction was stopped with 100 μl 2 N sulfuric acid. The absorbance was read at 450 nm with a Softmax P instrument, and Softmax software was used to determine the relative binding affinity (C value) with a 4-parameter fit.

[9] = biological target: T2, human FcγRIII (CD16), CD16a (F158), on …; assay: CD16 bridging assay, transient; remark: listed apart in the source
[10] = biological target: T2, human FcγRIII (CD16), CD16a (F158), on …; assay: summary of Table 5 assays
[11] = biological target: T2, human FcγRIII (CD16), CD16a (F158), on …; assay: CD16 bridging assay, transient; remark: listed apart in the source
[12] = biological target: T3, human C1q (Sigma C0660); assay: summary of Table 6 assays

T1 sequence (P12314 16-374): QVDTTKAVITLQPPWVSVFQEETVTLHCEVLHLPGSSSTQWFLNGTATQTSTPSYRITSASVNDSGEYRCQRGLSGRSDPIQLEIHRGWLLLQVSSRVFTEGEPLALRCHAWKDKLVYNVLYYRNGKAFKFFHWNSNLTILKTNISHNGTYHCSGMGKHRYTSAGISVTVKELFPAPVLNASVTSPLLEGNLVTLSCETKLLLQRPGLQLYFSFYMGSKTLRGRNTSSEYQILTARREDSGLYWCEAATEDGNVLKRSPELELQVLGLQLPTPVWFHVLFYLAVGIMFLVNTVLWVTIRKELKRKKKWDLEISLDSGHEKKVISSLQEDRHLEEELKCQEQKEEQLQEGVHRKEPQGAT

B1: chCB6-huIgG1 I332E (antibody, name in EU numbering)
heavy: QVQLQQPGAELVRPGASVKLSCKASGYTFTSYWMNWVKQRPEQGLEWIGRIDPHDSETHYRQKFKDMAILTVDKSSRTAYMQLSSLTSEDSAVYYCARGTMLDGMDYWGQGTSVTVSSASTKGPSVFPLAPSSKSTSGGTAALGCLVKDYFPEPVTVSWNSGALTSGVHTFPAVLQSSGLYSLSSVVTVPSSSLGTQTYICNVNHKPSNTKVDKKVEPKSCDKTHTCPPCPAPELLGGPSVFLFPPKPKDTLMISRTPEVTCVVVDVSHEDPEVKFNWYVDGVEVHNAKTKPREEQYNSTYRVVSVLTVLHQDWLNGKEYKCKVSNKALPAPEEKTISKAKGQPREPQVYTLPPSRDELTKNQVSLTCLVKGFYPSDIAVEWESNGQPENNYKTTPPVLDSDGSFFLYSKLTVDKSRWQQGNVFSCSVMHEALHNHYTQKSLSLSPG
light: QIVLTQSPAIMSASPGEKVTMTCRASSSVSHMHWYQQKSGTSPKRWIYDTSKLASGVPARFSGSGSGTSYSLTISSVEAEDAATYYCQQWSSNPLTFGAGTKLELKRTVAAPSVFIFPPSDEQLKSGTASVVCLLNNFYPREAKVQWKVDNALQSGNSQESVTEQDSKDSTYSLSSTLTLSKADYEKHKVYACEVTHQGLSSPVTKSFNRGEC
notes: copies: 2 + 2
binding result [1]: binds
fold increase in binding vs WT [2]: 20 fold
ADCC NK cell, purified (fold increase vs WT) [3]: 24 fold
fold increase in binding vs WT [4]: 7 fold
binding result [5]: binds
fold increase in binding vs WT [6]: 8 fold

B2: chCB6-huIgG1 L328D (antibody, name in EU numbering)
heavy: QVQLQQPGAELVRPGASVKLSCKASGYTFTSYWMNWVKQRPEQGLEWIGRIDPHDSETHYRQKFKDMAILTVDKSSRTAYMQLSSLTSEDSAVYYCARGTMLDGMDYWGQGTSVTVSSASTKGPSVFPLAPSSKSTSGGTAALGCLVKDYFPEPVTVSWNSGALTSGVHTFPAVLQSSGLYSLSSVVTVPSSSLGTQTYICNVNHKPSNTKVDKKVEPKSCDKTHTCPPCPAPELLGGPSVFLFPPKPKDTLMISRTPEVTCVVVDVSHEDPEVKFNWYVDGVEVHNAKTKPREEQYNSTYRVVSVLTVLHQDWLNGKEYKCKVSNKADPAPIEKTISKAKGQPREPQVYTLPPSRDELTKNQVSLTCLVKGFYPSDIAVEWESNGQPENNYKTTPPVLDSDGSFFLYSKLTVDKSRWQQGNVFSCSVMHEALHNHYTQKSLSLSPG
light: QIVLTQSPAIMSASPGEKVTMTCRASSSVSHMHWYQQKSGTSPKRWIYDTSKLASGVPARFSGSGSGTSYSLTISSVEAEDAATYYCQQWSSNPLTFGAGTKLELKRTVAAPSVFIFPPSDEQLKSGTASVVCLLNNFYPREAKVQWKVDNALQSGNSQESVTEQDSKDSTYSLSSTLTLSKADYEKHKVYACEVTHQGLSSPVTKSFNRGEC
notes: copies: 2 + 2
binding result [1]: binds
fold decrease in binding vs WT [7]: > 10 fold
binding result [2]: no binding
binding result [5]: no binding

B5: chCB6-huIgG1 A378F (antibody, name in EU numbering)
heavy: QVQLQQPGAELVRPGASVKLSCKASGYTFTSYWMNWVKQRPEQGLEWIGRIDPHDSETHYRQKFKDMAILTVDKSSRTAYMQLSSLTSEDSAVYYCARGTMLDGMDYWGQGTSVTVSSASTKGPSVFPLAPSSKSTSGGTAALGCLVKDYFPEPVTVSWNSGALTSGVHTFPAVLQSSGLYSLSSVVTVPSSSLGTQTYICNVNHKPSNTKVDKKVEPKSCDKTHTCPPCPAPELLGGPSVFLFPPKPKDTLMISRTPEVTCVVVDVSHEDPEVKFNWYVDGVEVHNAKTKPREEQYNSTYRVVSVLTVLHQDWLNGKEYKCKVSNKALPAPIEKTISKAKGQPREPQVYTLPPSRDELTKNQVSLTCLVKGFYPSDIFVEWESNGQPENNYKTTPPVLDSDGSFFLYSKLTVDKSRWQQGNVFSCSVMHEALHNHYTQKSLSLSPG
light: QIVLTQSPAIMSASPGEKVTMTCRASSSVSHMHWYQQKSGTSPKRWIYDTSKLASGVPARFSGSGSGTSYSLTISSVEAEDAATYYCQQWSSNPLTFGAGTKLELKRTVAAPSVFIFPPSDEQLKSGTASVVCLLNNFYPREAKVQWKVDNALQSGNSQESVTEQDSKDSTYSLSSTLTLSKADYEKHKVYACEVTHQGLSSPVTKSFNRGEC
notes: copies: 2 + 2
fold increase in binding vs WT [8]: 6 fold
binding result [11]: binds
fold increase in binding vs WT [12]: > 5 fold

B6: chCB6-huIgG1 R301Q (antibody, name in EU numbering)
heavy: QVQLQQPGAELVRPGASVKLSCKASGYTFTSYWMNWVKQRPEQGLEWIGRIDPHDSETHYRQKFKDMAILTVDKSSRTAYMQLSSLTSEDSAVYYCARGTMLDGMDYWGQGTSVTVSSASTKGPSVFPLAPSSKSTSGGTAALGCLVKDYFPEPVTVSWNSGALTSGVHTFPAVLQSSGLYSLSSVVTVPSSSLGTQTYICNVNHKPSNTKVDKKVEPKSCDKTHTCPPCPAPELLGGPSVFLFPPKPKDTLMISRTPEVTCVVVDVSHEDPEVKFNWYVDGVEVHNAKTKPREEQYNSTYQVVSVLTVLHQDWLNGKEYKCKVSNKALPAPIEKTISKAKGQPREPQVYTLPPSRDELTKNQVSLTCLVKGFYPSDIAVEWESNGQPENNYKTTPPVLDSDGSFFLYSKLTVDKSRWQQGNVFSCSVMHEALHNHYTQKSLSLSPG
light: QIVLTQSPAIMSASPGEKVTMTCRASSSVSHMHWYQQKSGTSPKRWIYDTSKLASGVPARFSGSGSGTSYSLTISSVEAEDAATYYCQQWSSNPLTFGAGTKLELKRTVAAPSVFIFPPSDEQLKSGTASVVCLLNNFYPREAKVQWKVDNALQSGNSQESVTEQDSKDSTYSLSSTLTLSKADYEKHKVYACEVTHQGLSSPVTKSFNRGEC
notes: copies: 2 + 2
binding result [8]: binds
fold decrease in binding vs WT [9]: 13 fold
fold decrease in binding vs WT [10]: > 10 fold

B7: chCB6-huIgG1 A378W (antibody, name in EU numbering)
heavy: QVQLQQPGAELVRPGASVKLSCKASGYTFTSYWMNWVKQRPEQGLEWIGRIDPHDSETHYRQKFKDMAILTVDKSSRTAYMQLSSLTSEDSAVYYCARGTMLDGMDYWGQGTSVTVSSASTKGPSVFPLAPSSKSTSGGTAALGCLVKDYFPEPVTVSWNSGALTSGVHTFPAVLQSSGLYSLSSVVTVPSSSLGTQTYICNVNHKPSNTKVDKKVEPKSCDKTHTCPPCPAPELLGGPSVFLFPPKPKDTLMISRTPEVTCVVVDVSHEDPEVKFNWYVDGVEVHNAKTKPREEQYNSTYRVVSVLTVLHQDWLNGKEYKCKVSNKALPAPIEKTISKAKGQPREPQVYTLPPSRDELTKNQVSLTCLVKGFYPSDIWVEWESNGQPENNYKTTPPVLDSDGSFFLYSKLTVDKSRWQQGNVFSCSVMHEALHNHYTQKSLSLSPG
light: QIVLTQSPAIMSASPGEKVTMTCRASSSVSHMHWYQQKSGTSPKRWIYDTSKLASGVPARFSGSGSGTSYSLTISSVEAEDAATYYCQQWSSNPLTFGAGTKLELKRTVAAPSVFIFPPSDEQLKSGTASVVCLLNNFYPREAKVQWKVDNALQSGNSQESVTEQDSKDSTYSLSSTLTLSKADYEKHKVYACEVTHQGLSSPVTKSFNRGEC
notes: copies: 2 + 2
fold increase in binding vs WT [8]: 7 fold
binding result [11]: binds
fold increase in binding vs WT [12]: > 5 fold

B9: chCB6-huIgG1 A378Y (antibody, name in EU numbering)
heavy: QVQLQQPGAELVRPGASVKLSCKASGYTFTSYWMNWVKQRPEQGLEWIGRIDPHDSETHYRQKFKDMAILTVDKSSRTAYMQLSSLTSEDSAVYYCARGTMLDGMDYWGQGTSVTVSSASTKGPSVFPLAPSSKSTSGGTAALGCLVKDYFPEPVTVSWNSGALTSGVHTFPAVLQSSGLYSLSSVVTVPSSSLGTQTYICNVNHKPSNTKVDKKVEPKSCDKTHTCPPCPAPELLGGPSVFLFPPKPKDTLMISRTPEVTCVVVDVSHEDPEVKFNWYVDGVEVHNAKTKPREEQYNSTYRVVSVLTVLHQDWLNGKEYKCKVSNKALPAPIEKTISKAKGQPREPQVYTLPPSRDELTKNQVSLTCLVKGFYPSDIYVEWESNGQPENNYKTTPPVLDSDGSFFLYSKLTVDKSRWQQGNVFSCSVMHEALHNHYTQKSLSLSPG
light: QIVLTQSPAIMSASPGEKVTMTCRASSSVSHMHWYQQKSGTSPKRWIYDTSKLASGVPARFSGSGSGTSYSLTISSVEAEDAATYYCQQWSSNPLTFGAGTKLELKRTVAAPSVFIFPPSDEQLKSGTASVVCLLNNFYPREAKVQWKVDNALQSGNSQESVTEQDSKDSTYSLSSTLTLSKADYEKHKVYACEVTHQGLSSPVTKSFNRGEC
notes: copies: 2 + 2
fold increase in binding vs WT [8]: 6 fold
binding result [11]: binds
fold increase in binding vs WT [12]: > 5 fold

More lines, now with the values ahead:

fold decrease in binding vs WT [7]: > 10 fold
fold decrease in binding vs WT [2]: 30 fold
B3: chCB6-huIgG1 F241Q (antibody, name in EU numbering)
heavy: not shown
light: QIVLTQSPAIMSASPGEKVTMTCRASSSVSHMHWYQQKSGTSPKRWIYDTSKLASGVPARFSGSGSGTSYSLTISSVEAEDAATYYCQQWSSNPLTFGAGTKLELKRTVAAPSVFIFPPSDEQLKSGTASVVCLLNNFYPREAKVQWKVDNALQSGNSQESVTEQDSKDSTYSLSSTLTLSKADYEKHKVYACEVTHQGLSSPVTKSFNRGEC
notes: copies: 2 + 2

fold decrease in binding vs WT [8]: 3 fold
fold decrease in binding vs WT [9]: 18 fold
fold decrease in binding vs WT [10]: > 10 fold
B4: chCB6-huIgG1 Y296H (antibody, name in EU numbering)
heavy: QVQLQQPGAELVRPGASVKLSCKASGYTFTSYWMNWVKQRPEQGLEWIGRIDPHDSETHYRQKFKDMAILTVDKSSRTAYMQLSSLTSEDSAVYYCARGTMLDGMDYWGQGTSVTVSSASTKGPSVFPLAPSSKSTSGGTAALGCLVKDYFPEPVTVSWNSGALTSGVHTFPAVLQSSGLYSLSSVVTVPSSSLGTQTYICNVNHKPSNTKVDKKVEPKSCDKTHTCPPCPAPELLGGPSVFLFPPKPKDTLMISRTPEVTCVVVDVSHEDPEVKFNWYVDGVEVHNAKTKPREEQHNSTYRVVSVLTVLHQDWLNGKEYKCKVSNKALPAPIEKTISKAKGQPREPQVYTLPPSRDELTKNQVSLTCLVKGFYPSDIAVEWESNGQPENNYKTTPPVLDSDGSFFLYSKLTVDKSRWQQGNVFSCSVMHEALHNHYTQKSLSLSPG
light: QIVLTQSPAIMSASPGEKVTMTCRASSSVSHMHWYQQKSGTSPKRWIYDTSKLASGVPARFSGSGSGTSYSLTISSVEAEDAATYYCQQWSSNPLTFGAGTKLELKRTVAAPSVFIFPPSDEQLKSGTASVVCLLNNFYPREAKVQWKVDNALQSGNSQESVTEQDSKDSTYSLSSTLTLSKADYEKHKVYACEVTHQGLSSPVTKSFNRGEC
notes: copies: 2 + 2

fold decrease in binding vs WT [1]: 14 fold
fold decrease in binding vs WT [7]: > 10 fold
fold decrease in binding vs WT [2]: 30 fold
fold decrease in binding vs WT [4]: 9 fold
binding result [5]: no binding
B8: chCB6-huIgG1 L328E (antibody, name in EU numbering)
heavy: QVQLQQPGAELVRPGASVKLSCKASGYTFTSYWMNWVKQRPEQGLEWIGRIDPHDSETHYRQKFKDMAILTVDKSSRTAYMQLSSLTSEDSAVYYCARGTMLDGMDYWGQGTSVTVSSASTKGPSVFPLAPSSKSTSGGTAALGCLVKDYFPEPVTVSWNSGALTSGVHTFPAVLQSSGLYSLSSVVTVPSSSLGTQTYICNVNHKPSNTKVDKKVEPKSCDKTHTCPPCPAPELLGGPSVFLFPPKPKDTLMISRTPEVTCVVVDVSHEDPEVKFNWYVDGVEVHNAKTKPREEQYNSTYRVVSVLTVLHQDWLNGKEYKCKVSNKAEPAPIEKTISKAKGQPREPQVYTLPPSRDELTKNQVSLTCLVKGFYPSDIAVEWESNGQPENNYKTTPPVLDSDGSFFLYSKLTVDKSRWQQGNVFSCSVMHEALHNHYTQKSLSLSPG
light: QIVLTQSPAIMSASPGEKVTMTCRASSSVSHMHWYQQKSGTSPKRWIYDTSKLASGVPARFSGSGSGTSYSLTISSVEAEDAATYYCQQWSSNPLTFGAGTKLELKRTVAAPSVFIFPPSDEQLKSGTASVVCLLNNFYPREAKVQWKVDNALQSGNSQESVTEQDSKDSTYSLSSTLTLSKADYEKHKVYACEVTHQGLSSPVTKSFNRGEC
notes: copies: 2 + 2

fold decrease in binding vs WT [9]: 12 fold
fold decrease in binding vs WT [10]: > 10 fold
B10: chCB6-huIgG1 E294S (antibody, name in EU numbering)
heavy: not shown
light: QIVLTQSPAIMSASPGEKVTMTCRASSSVSHMHWYQQKSGTSPKRWIYDTSKLASGVPARFSGSGSGTSYSLTISSVEAEDAATYYCQQWSSNPLTFGAGTKLELKRTVAAPSVFIFPPSDEQLKSGTASVVCLLNNFYPREAKVQWKVDNALQSGNSQESVTEQDSKDSTYSLSSTLTLSKADYEKHKVYACEVTHQGLSSPVTKSFNRGEC
notes: copies: 2 + 2

fold decrease in binding vs WT [7]: > 10 fold
fold decrease in binding vs WT [2]: 13 fold
B11: chCB6-huIgG1 S298N (antibody, name in EU numbering)
heavy: not shown
light: QIVLTQSPAIMSASPGEKVTMTCRASSSVSHMHWYQQKSGTSPKRWIYDTSKLASGVPARFSGSGSGTSYSLTISSVEAEDAATYYCQQWSSNPLTFGAGTKLELKRTVAAPSVFIFPPSDEQLKSGTASVVCLLNNFYPREAKVQWKVDNALQSGNSQESVTEQDSKDSTYSLSSTLTLSKADYEKHKVYACEVTHQGLSSPVTKSFNRGEC
notes: copies: 2 + 2
